Laboratory results from patent EP4585619A1 (Cichlid Inc., dated 2025).
Residue numbers refer to the chain shown, from its start.

B1: 4A2 full IgG1 antibody (antibody, V domains shown)
VH: EVQLLESGGGLVQPGGSLRLSCAASGFTFSNYAMSWVRQAPGKGLEWVSEISHSGTTNYNPSLKSRFTISRDNSKNTLYLQMNSLRAEDTAVYYCTRAIWGFDYWGQGTLVTVSS
VL: QSVLTQPPSASGTPGQRVTISCSRENIGSRSVHWYQQLPGTAPKLLIYDNNERASGVPNRFSGSKSGTSASLAISGLRSEDEADYYCQAWDSSTAVFGGGTKLTVLR
notes: scFv clone converted to full IgG1, made in CHO-S cells; also called 4A2 antibody; anti-VISTA antibody
B2: 4G3 full IgG1 antibody (antibody, V domains shown)
VH: EVQLLESGGGLVQPGGSLRLSCVASGFTFSEKSIHWVRQAPGKGLEWVSGTSANTGNTYYADSVKGRFTISRDNSKNTLYLQMNSLRAEDTAVYYCAHHNWAGYFDYWGQGTLVTVSS
VL: EIVLTQSPGILSLSPGERATLSCQASHAISNYINWYQQKPGQAPRLLIYDASNRATGIPDRFSGSGSGTDFTLTISRLEPEDFAVYYCQQSNSFPYTFGQGTKVEIKR
notes: scFv clone converted to full IgG1, made in CHO-S cells; also called anti-VISTA antibody
B3: 4H2 full IgG1 antibody (antibody, V domains shown)
VH: EVQLLESGGGLVQPGGSLRLSCAASGFTFSTAWMSWVRQAPGKGLEWVSRVNPSDSHTDYSPSFQDRFTISRDNSKNTLYLQMNSLRAEDTAVYYCARVPPGYGFDIWGQGTLVTVSS
VL: B2 VL with I10T, H27Q, A28D, S30T, I33L, N92Y, F94T, Y96F
notes: as for B2
B4: 4A3 full IgG1 antibody (antibody, V domains shown)
VH: EVQLLESGGGLVQPGGSLRLSCAASGFTFSNYYMHWVRQAPGKGLEWVSSISFTGSTSYNPSLKSRFTISRDNSKNTLYLQMNSLRAEDTAVYYCARLGIPFFTYLDYWGQGTLVTVSS
VL: QSVLTQPPSASGTPGQRVTISCGGNNIGSKSVHWYQQLPGTAPKLLIYEDTERPSGVSDRFSGSKSGTSASLAISGLRSEDEADYYCQAWDSSTVVFGGGTKLTVLR
notes: as for B2
B5: 4F2 full IgG1 antibody (antibody, V domains shown)
VH: EVQLLESGGGLVQPGGSLRLSCAASGFTFSDYYMHWVRQAPGKGLEWVSEIIPIFDTANYAQKFQDRFTISRDNSKNTLYLQMNSLRAEDTAVYYCARSTGDYFDYWGQGTLVTVSS
VL: QSVLTQPPSASGTPGQRVTISCSGDKLGNKYTSWYQQLPGTAPKLLIYDNNKRPSGVPDRFSGSKSGTSASLAISGLRSEDEADYYCGTWDSSLSAYVFGGGTKLTVLR
notes: as for B2
B6: 4D2 full IgG1 antibody (antibody, V domains shown)
VH: EVQLLESGGGLVQPGGSLRLSCAASGFTFSSYWIAWVRQAPGKGLEWVSTISGSGGYTYYAESVKGRFTISRDNSKNTLYLQMNSLRAEDTAVYYCARDSSGWLNYWGQGTLVTVSS
VL: EIVLTQSPGTLSLSPGERATLSCRASQSITSHLAWYQQKPGQAPRLLIYDASNRATGIPDRFSGSGSGTDFTLTISRLEPEDFAVYYCQQYNNWPPITFGQGTKVEIKR
notes: as for B2
B7: 4H2 scFv (scFv, V domains shown)
VH: B3 VH
VL: EIVLTQSPGTLSLSPGERATLSCQASQDITNYLNWYQQKPGQAPRLLIYDASNRATGIPDRFSGSGSGTDFTLTISRLEPEDFAVYYCQQSYSTPFTFGQGTKVEIK
notes: One-chain scFv with an HA tag from a synthetic human scFv library, made in E. coli
B8: 4A2 scFv (scFv, V domains shown)
VH: B1 VH
VL: QSVLTQPPSASGTPGQRVTISCSRENIGSRSVHWYQQLPGTAPKLLIYDNNERASGVPNRFSGSKSGTSASLAISGLRSEDEADYYCQAWDSSTAVFGGGTKLTVL
notes: as for B7
B9: 4G3 scFv (scFv, V domains shown)
VH: B2 VH
VL: B7 VL with T10I, Q27H, D28A, T30S, L33I, Y92N, T94F, F96Y
notes: as for B7
B10: 4A3 scFv (scFv, V domains shown)
VH: B4 VH
VL: QSVLTQPPSASGTPGQRVTISCGGNNIGSKSVHWYQQLPGTAPKLLIYEDTERPSGVSDRFSGSKSGTSASLAISGLRSEDEADYYCQAWDSSTVVFGGGTKLTVL
notes: as for B7
B11: 4F2 scFv (scFv, V domains shown)
VH: B5 VH
VL: QSVLTQPPSASGTPGQRVTISCSGDKLGNKYTSWYQQLPGTAPKLLIYDNNKRPSGVPDRFSGSKSGTSASLAISGLRSEDEADYYCGTWDSSLSAYVFGGGTKLTVL
notes: as for B7
B12: 4D2 scFv (scFv, V domains shown)
VH: B6 VH
VL: EIVLTQSPGTLSLSPGERATLSCRASQSITSHLAWYQQKPGQAPRLLIYDASNRATGIPDRFSGSGSGTDFTLTISRLEPEDFAVYYCQQYNNWPPITFGQGTKVEIK
notes: as for B7

Each binder was assayed against T1, human VISTA protein (hVISTA-Fc, R&D Systems, Cat. No. 7126-B7) (human, UniProt Q9H7M9 33-194) (assay: ELISA on coated hVISTA-Fc, antibody at 100 ng per well).
T1 construct: Bought recombinant protein; not shown: Fc part of the bought fusion protein
T1 sequence (looked up): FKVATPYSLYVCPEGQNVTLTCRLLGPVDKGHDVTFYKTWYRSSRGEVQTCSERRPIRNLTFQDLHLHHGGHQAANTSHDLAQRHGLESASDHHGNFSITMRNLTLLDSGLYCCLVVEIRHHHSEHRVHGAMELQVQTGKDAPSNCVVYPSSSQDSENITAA
B1: binds.
B2: binds.
B3: binds.
B4: binds.
B5: binds.
B6: binds.

These binders were tested against T2, mouse VISTA protein (mVISTA-Fc, R&D Systems, Cat. No. 7005-B7) (mouse, UniProt Q9D659 33-191) (assay: ELISA on coated mVISTA-Fc).
T2 construct: Bought recombinant protein; not shown: Fc part of the bought fusion protein
T2 sequence (looked up): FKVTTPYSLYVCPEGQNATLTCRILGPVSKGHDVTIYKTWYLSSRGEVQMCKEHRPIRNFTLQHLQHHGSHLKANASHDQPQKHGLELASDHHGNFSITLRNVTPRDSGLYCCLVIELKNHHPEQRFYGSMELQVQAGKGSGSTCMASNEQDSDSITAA
B1: no binding (tested: 100 ng per well).
B2: no binding (tested: 100 ng per well).
B3: no binding (tested: 100 ng per well).
B4: no binding (tested: 100 ng per well).
B5: no binding (tested: 100 ng per well).
B6: no binding (tested: 100 ng per well).

The binders below were run against T3, human VISTA protein overexpressed in the NIH/3T3 cell line (human, UniProt Q9H7M9 33-311) (assay: cell ELISA of scFv on VISTA-expressing NIH/3T3 cells, anti-HA HRP).
T3 construct: whole, on cells; Gene cloned into pCMV3-C-FLAG (Sino Biological), so a C-terminal FLAG tag is likely; On whole cells in ELISA and flow cytometry; as sonicated lysate in immunoprecipitation; as reduced, boiled RIPA lysate in the western blot; also called VISTA/NIH/3T3 cell line; VISTA-expressing cell line
T3 sequence (looked up): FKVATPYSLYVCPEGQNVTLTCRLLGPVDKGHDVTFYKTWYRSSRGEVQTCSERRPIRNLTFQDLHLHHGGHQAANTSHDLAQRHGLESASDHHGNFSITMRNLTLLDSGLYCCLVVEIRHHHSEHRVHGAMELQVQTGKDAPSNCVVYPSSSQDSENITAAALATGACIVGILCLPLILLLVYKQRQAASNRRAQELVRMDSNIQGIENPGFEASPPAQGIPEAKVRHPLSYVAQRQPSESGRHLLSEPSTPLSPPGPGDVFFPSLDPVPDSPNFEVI
B7: binds.
B8: binds.
B9: binds.
B10: binds.
B11: binds.
B12: binds.
